Values quoted from earlier work as cited in paper PMC5393932.

Target: P-selectin (Homo sapiens) (UniProt P16109)
UniProt P16109, sequence (P16109 42-771): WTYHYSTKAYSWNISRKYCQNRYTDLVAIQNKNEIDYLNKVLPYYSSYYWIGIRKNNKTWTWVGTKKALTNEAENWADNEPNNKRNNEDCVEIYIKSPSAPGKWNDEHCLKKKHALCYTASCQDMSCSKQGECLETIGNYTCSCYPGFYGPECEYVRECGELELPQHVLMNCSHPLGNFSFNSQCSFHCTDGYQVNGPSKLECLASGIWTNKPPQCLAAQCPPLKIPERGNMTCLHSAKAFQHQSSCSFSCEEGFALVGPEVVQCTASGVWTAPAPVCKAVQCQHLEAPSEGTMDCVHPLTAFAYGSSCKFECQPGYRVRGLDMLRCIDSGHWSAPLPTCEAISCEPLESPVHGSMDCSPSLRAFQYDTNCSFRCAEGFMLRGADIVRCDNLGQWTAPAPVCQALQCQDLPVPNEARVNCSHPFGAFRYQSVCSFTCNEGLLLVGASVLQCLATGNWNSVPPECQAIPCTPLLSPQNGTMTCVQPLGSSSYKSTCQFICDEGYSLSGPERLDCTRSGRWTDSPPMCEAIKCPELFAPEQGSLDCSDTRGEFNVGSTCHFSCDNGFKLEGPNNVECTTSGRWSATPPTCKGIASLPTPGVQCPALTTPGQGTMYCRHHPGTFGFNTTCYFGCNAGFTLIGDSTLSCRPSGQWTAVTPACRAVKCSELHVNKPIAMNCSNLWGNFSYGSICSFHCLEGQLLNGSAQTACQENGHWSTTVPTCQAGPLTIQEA

Kd: 70 nM
Substance: PSGL-1 (from UniProt Q14242)
